Results: US20120058906A1 (published 2012)
One block for each binder: values may come before it.

Legend:
[1] = target: T1, rHuman EGF R/Fc Chimera, CF (R&D Systems Cat#344-ER) (human, UniProt P00533 25-645); experiment: ECL (MSD multi-spot), antigen spotted on plate; Fab 10 nM; blank 550
T1 construct: Bought protein; also called epidermal growth factor receptor; Fc part of the bought chimera not given

[2] = target: T2, rHuman Notch-1/Fc Chimera, CF (R&D Systems Cat#3647-TK) (human, UniProt P46531 19-526); experiment: as above
T2 construct: Bought protein; Fc part of the bought chimera not given

[3] = target: T3, rHuman IGF-1 sR (IGF-1 sR), CF (R&D Systems Cat#391-GR) (human, UniProt P08069 31-932); experiment: as above
T3 construct: Bought soluble receptor; also called insulin-like growth factor-1 soluble receptor; IGF-R1

[4] = target: T4, rHuman ErbB2/Fc Chimera, CF (R&D Systems Cat#1129-ER) (human, UniProt P04626 23-652); experiment: as above
T4 construct: Bought protein; also called HER2/neu; human epidermal growth factor 2 receptor; Fc part of the bought chimera not given

[5] = target: T5, rHuman HGF R/c-MET/Fc Chimera, CF (R&D Systems Cat#358-MT/CF) (human, UniProt P08581 25-932); experiment: as above
T5 construct: Bought protein; also called HGF R/Fc; hepatocyte growth factor receptor; Fc part of the bought chimera not given

[6] = target: T6, rHuman CD44/Fc Chimera, CF (R&D Systems Cat#3660-CD) (human, UniProt P16070 21-220); experiment: as above
T6 construct: Bought protein; Fc part of the bought chimera not given

[7] = target: T7, rHuman Erythropoietin R/Fc Chimera, CF (R&D Systems Cat#963-ER) (human, UniProt P19235 25-250); experiment: as above
T7 construct: Bought protein; also called EPO R/Fc; Epo R; Fc part of the bought chimera not given
T7 sequence: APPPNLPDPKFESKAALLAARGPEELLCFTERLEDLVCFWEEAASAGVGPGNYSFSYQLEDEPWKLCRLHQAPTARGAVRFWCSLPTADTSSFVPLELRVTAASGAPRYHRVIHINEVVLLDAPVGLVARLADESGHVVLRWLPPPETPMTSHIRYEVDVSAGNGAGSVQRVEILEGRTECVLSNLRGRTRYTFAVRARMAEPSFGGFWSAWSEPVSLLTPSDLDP

[8] = target: T8, rHuman P-Cadherin/Fc Chimera, CF (R&D Systems Cat#861-PC) (human, UniProt P22223 108-654); experiment: as above
T8 construct: Bought protein; also called CDH3; Fc part of the bought chimera not given

[9] = target: T9, Recombinant Human DLL4 (R&D Systems Cat#1506-D4/CF) (human, UniProt Q9NR61 27-524); experiment: as above
T9 construct: Bought protein; also called rHuman DLL4; delta-like protein 4

[10] = target: T1, rHuman EGF R/Fc Chimera, CF (R&D …); experiment: ECL (MSD multi-spot), antigen spotted on plate; Fab 1000 nM; blank 760
[11] = target: T2, rHuman Notch-1/Fc Chimera, CF (R&D …); experiment: as above
[12] = target: T3, rHuman IGF-1 sR (IGF-1 sR), CF (R&D …); experiment: as above
[13] = target: T4, rHuman ErbB2/Fc Chimera, CF (R&D …); experiment: as above
[14] = target: T5, rHuman HGF R/c-MET/Fc Chimera, CF (R&D …); experiment: as above
[15] = target: T6, rHuman CD44/Fc Chimera, CF (R&D Systems …); experiment: as above
[16] = target: T7, rHuman Erythropoietin R/Fc Chimera, CF …; experiment: as above
[17] = target: T8, rHuman P-Cadherin/Fc Chimera, CF (R&D …); experiment: as above
[18] = target: T9, Recombinant Human DLL4 (R&D Systems …); experiment: as above
[19] = target: T10, rHuman ErbB2/Fc Chimera, CF (R&D Systems Cat#1129-ER) (human, UniProt P04626 23-652); experiment: ECL (MSD Multi-Spot) binding, antigen spotted on plate; Fab 1000 nM
T10 construct: Bought Fc chimera; also called human epidermal growth factor 2 receptor; HER2/neu; Fc part of the bought chimera not given

[20] = target: T11, Recombinant Human DLL4 (R&D Systems Cat#1506-D4/CF) (human, UniProt Q9NR61 27-524); experiment: as above
T11 construct: Bought recombinant protein; also called delta-like protein 4

[21] = target: T12, rHuman EGF R/Fc Chimera, CF (R&D Systems Cat#344-ER) (human, UniProt P00533 25-645); experiment: as above
T12 construct: Bought Fc chimera; also called epidermal growth factor receptor; Fc part of the bought chimera not given

[22] = target: T13, rHuman P-Cadherin/Fc Chimera, CF (R&D Systems Cat#861-PC) (human, UniProt P22223 108-654); experiment: as above
T13 construct: Bought Fc chimera; Fc part of the bought chimera not given

[23] = target: T14, rHuman IGF-1 sR, CF (R&D Systems Cat#391-GR) (human, UniProt P08069 31-932); experiment: as above
T14 construct: Bought soluble receptor; also called insulin-like growth factor-1 soluble receptor; IGF-R1

[24] = target: T15, rHuman HGF R/c-MET/Fc Chimera, CF (R&D Systems Cat#358-MT/CF) (human, UniProt P08581 25-932); experiment: as above
T15 construct: Bought Fc chimera; also called HGF R/Fc; hepatocyte growth factor receptor; Fc part of the bought chimera not given

[25] = target: T16, rHuman CD44/Fc Chimera, CF (R&D Systems Cat#3660-CD) (human, UniProt P16070 21-220); experiment: as above
T16 construct: Bought Fc chimera; Fc part of the bought chimera not given

[26] = target: T17, rHuman Erythropoietin R/Fc Chimera, CF (R&D Systems Cat#963-ER) (human, UniProt P19235 25-250); experiment: as above
T17 construct: Bought Fc chimera; also called EPO R/Fc; erythropoietin receptor; Fc part of the bought chimera not given
T17 sequence: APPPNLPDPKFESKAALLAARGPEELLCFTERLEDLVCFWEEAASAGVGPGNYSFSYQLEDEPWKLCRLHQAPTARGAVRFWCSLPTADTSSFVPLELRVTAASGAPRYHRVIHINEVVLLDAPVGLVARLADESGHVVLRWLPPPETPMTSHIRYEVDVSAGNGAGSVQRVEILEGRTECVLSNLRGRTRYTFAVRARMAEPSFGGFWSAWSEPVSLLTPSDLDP

[27] = target: T18, rHuman Notch-1/Fc Chimera, CF (R&D Systems Cat#3647-TK) (human, UniProt P46531 19-526); experiment: as above
T18 construct: Bought Fc chimera; Fc part of the bought chimera not given

[28] = target: T10, rHuman ErbB2/Fc Chimera, CF (R&D …); experiment: ECL (MSD Multi-Spot) binding, antigen spotted on plate; Fab 10 nM
[29] = target: T11, Recombinant Human DLL4 (R&D Systems …); experiment: as above
[30] = target: T12, rHuman EGF R/Fc Chimera, CF (R&D …); experiment: as above
[31] = target: T13, rHuman P-Cadherin/Fc Chimera, CF (R&D …); experiment: as above
[32] = target: T14, rHuman IGF-1 sR, CF (R&D Systems …); experiment: as above
[33] = target: T15, rHuman HGF R/c-MET/Fc Chimera, CF (R&D …); experiment: as above
[34] = target: T16, rHuman CD44/Fc Chimera, CF (R&D Systems …); experiment: as above
[35] = target: T17, rHuman Erythropoietin R/Fc Chimera, CF …; experiment: as above
[36] = target: T18, rHuman Notch-1/Fc Chimera, CF (R&D …); experiment: as above
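Note: blank spot per well as comparator with Hit at signal to blank ratio of 4 or more.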

- ECL signal [1]: 773
- ECL signal [2]: 792
- ECL signal [3]: 814
- ECL signal [4]: 847
- ECL signal [5]: 859
- ECL signal [6]: 746
- ECL signal [7]: 802
- ECL signal [8]: 846
- ECL signal [9]: 55100
- ECL signal [10]: 1910
- ECL signal [11]: 1210
- ECL signal [12]: 1340
- ECL signal [13]: 1280
- ECL signal [14]: 1360
- ECL signal [15]: 1220
- ECL signal [16]: 1510
- ECL signal [17]: 1380
- ECL signal [18]: 29800
B1: Fab VH1-46_IGHD6-6*01_IGHJ1*01_S103P & L6_IGKJ1*01 (Fab, V domains shown)
VH: QVQLVQSGAEVKKPGASVKVSCKASGYTFTSYYMHWVRQAPGQGLEWMGIINPSGGSTSYAQKFQGRVTMTRDTSTSTVYMELSSLRSEDTAVYYCAREEYSPSSAEYFQHWGQGTLVTVSS
VL: not shown
notes: Expressed in E. coli as a Fab; CH1 with Flag and His tags comes from Plasmid A and the kappa CL from Plasmid C; also called IGHV1-46*01; IGHJ1*01 S103P with IGKV3-11*01

- ECL signal [19]: 946
- ECL signal [20]: 22200
- ECL signal [21]: 1600
- ECL signal [22]: 1500
- ECL signal [23]: 1170
- ECL signal [24]: 1660
- ECL signal [25]: 1090
- ECL signal [26]: 1320
- ECL signal [27]: 1250
- ECL signal [28]: 670
- ECL signal [29]: 38700
- ECL signal [30]: 677
- ECL signal [31]: 691
- ECL signal [32]: 657
- ECL signal [33]: 698
- ECL signal [34]: 681
- ECL signal [35]: 761
- ECL signal [36]: 647
B2: Fab VH1-46_IGHD6-6*01_IGHJ1*01_S102A & L6_IGKJ1*01 (Fab, V domains shown)
VH: QVQLVQSGAEVKKPGASVKVSCKASGYTFTSYYMHWVRQAPGQGLEWMGIINPSGGSTSYAQKFQGRVTMTRDTSTSTVYMELSSLRSEDTAVYYCAREEYASSSAEYFQHWGQGTLVTVSS
VL: not shown
notes: Fab made in E. coli; The heavy chain also carries the CH1 with Flag and His tags of Plasmid A, and the light chain the kappa constant region of Plasmid C
